Measurements taken from the supplement of paper PMC9112550, “Optimization of the antimicrobial peptide Bac7 by deep mutational scanning” (BMC Biology, 2022).

What follows are sequences tested on Escherichia coli TOP10 (assay: shrunken log2 fold change of peptide-encoding DNA abundance (4.5 h post-induction vs induction); higher = less antimicrobial activity (less host growth inhibition)). Conditions: time post-induction: 4.5 h; library: site-saturation at positions 5, 18, 19, 20.
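Further: peptides expressed intracellularly from a pBAD plasmid library in pooled LB shake-flask culture, induced with 0.3% L-arabinose, DNA abundance read by NGS, three biological replicates, DESeq2 with apeglm shrinkage.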

Which “shrunken log2 fold change” value does the source give for RRIRKRPPRLPRPRPRPMDQPRP here?
Its value is 0.0935.

How did the “shrunken log2 fold change” value turn out when RRIRFRPPRLPRPRPRPGCRPRP was run?
The value was 0.00327.

RRIRYRPPRLPRPRPRPQEWPRP was tested. Which “shrunken log2 fold change” value did it give?
The value was -0.000687.

How did the “shrunken log2 fold change” value turn out when RRIRQRPPRLPRPRPRPPGTPRP was run?
The value was 0.617.

For RRIRMRPPRLPRPRPRPPRFPRP, which “shrunken log2 fold change” value is on record?
Its value is 1.23.

RRIRARPPRLPRPRPRPELLPRP was tested. Which “shrunken log2 fold change” value did it give?
Its value is 0.961.

How did the “shrunken log2 fold change” value turn out when RRIRWRPPRLPRPRPRPKPLPRP was run?
The value was 0.375.

RRIRERPPRLPRPRPRPFNDPRP was tested. Which “shrunken log2 fold change” value did it give?
Its value is -0.0864.

With RRIRIRPPRLPRPRPRPCPKPRP as the sequence, how does the “shrunken log2 fold change” value read?
The value was -0.564.

Which “shrunken log2 fold change” value does the source give for RRIRFRPPRLPRPRPRPKPPPRP here?
The value was 1.35.

For RRIRRRPPRLPRPRPRPVYCPRP, which “shrunken log2 fold change” value is on record?
The value was -0.0322.

Which “shrunken log2 fold change” value does the source give for RRIRERPPRLPRPRPRPIKPPRP here?
The value was -0.363.

Which “shrunken log2 fold change” value does the source give for RRIRCRPPRLPRPRPRPAINPRP here?
Its value is -0.606.

With RRIRKRPPRLPRPRPRPHWNPRP as the sequence, how does the “shrunken log2 fold change” value read?
Its value is -0.296.

For RRIRTRPPRLPRPRPRPRQWPRP, which “shrunken log2 fold change” value is on record?
The value was -0.054.

For RRIRARPPRLPRPRPRPNAVPRP, which “shrunken log2 fold change” value is on record?
The value was 0.0101.

RRIRIRPPRLPRPRPRPVRDPRP was tested. Which “shrunken log2 fold change” value did it give?
The value was 0.158.

Which “shrunken log2 fold change” value does the source give for RRIRCRPPRLPRPRPRPERNPRP here?
Its value is -0.223.

For RRIRRRPPRLPRPRPRPNTGPRP, which “shrunken log2 fold change” value is on record?
Its value is -0.121.

For RRIRVRPPRLPRPRPRPAAMPRP, which “shrunken log2 fold change” value is on record?
Its value is 0.347.

Which “shrunken log2 fold change” value does the source give for RRIRMRPPRLPRPRPRPRRDPRP here?
The value was 0.651.

For RRIRTRPPRLPRPRPRPSIWPRP, which “shrunken log2 fold change” value is on record?
The value was 0.112.

RRIRDRPPRLPRPRPRPHFEPRP was tested. Which “shrunken log2 fold change” value did it give?
Its value is 0.163.

How did the “shrunken log2 fold change” value turn out when RRIRARPPRLPRPRPRPPAMPRP was run?
The value was 0.394.

With RRIRKRPPRLPRPRPRPPMNPRP as the sequence, how does the “shrunken log2 fold change” value read?
Its value is 0.123.

How did the “shrunken log2 fold change” value turn out when RRIRGRPPRLPRPRPRPKQLPRP was run?
The value was -0.00285.

For RRIRYRPPRLPRPRPRPPTAPRP, which “shrunken log2 fold change” value is on record?
The value was -0.111.

How did the “shrunken log2 fold change” value turn out when RRIRLRPPRLPRPRPRPYCTPRP was run?
The value was 1.26.

With RRIRVRPPRLPRPRPRPWRNPRP as the sequence, how does the “shrunken log2 fold change” value read?
The value was 0.065.

With RRIRCRPPRLPRPRPRPEHRPRP as the sequence, how does the “shrunken log2 fold change” value read?
The value was -0.0739.

With RRIRLRPPRLPRPRPRPSKCPRP as the sequence, how does the “shrunken log2 fold change” value read?
Its value is -0.0487.

For RRIRRRPPRLPRPRPRPKEWPRP, which “shrunken log2 fold change” value is on record?
Its value is 0.044.

RRIRYRPPRLPRPRPRPHWEPRP was tested. Which “shrunken log2 fold change” value did it give?
The value was -0.276.

RRIRARPPRLPRPRPRPSQIPRP was tested. Which “shrunken log2 fold change” value did it give?
The value was 0.0409.

For RRIRMRPPRLPRPRPRPFEAPRP, which “shrunken log2 fold change” value is on record?
The value was 0.655.

RRIRPRPPRLPRPRPRPWWDPRP was tested. Which “shrunken log2 fold change” value did it give?
The value was -0.204.

RRIRRRPPRLPRPRPRPWNSPRP was tested. Which “shrunken log2 fold change” value did it give?
The value was 0.0625.

RRIRKRPPRLPRPRPRPSFKPRP was tested. Which “shrunken log2 fold change” value did it give?
Its value is -0.0346.

How did the “shrunken log2 fold change” value turn out when RRIRDRPPRLPRPRPRPKNEPRP was run?
Its value is -0.00834.

For RRIRQRPPRLPRPRPRPSEWPRP, which “shrunken log2 fold change” value is on record?
The value was -0.0519.

How did the “shrunken log2 fold change” value turn out when RRIRLRPPRLPRPRPRPLECPRP was run?
Its value is 0.184.

RRIRRRPPRLPRPRPRPDQRPRP was tested. Which “shrunken log2 fold change” value did it give?
The value was -0.0913.

RRIRQRPPRLPRPRPRPYMTPRP was tested. Which “shrunken log2 fold change” value did it give?
Its value is -0.122.

With RRIRTRPPRLPRPRPRPVSNPRP as the sequence, how does the “shrunken log2 fold change” value read?
Its value is -0.442.

RRIRMRPPRLPRPRPRPIAVPRP was tested. Which “shrunken log2 fold change” value did it give?
The value was -0.015.

For RRIRPRPPRLPRPRPRPHMYPRP, which “shrunken log2 fold change” value is on record?
Its value is -0.316.

For RRIRHRPPRLPRPRPRPDCLPRP, which “shrunken log2 fold change” value is on record?
The value was -0.228.

Which “shrunken log2 fold change” value does the source give for RRIRMRPPRLPRPRPRPERFPRP here?
The value was 0.0214.

RRIRGRPPRLPRPRPRPNMNPRP was tested. Which “shrunken log2 fold change” value did it give?
Its value is 0.255.

Which “shrunken log2 fold change” value does the source give for RRIRYRPPRLPRPRPRPWIEPRP here?
Its value is -0.866.

How did the “shrunken log2 fold change” value turn out when RRIRMRPPRLPRPRPRPRDNPRP was run?
The value was 0.455.

How did the “shrunken log2 fold change” value turn out when RRIRARPPRLPRPRPRPIYMPRP was run?
The value was -0.11.

Which “shrunken log2 fold change” value does the source give for RRIRLRPPRLPRPRPRPDMRPRP here?
The value was -0.0825.

With RRIRHRPPRLPRPRPRPLTFPRP as the sequence, how does the “shrunken log2 fold change” value read?
The value was 0.01.

RRIRMRPPRLPRPRPRPCHRPRP was tested. Which “shrunken log2 fold change” value did it give?
The value was 0.00646.

For RRIRYRPPRLPRPRPRPSDVPRP, which “shrunken log2 fold change” value is on record?
The value was -0.199.

How did the “shrunken log2 fold change” value turn out when RRIRARPPRLPRPRPRPCASPRP was run?
Its value is 0.158.

How did the “shrunken log2 fold change” value turn out when RRIRARPPRLPRPRPRPPEHPRP was run?
The value was 0.606.

Which “shrunken log2 fold change” value does the source give for RRIRTRPPRLPRPRPRPGCNPRP here?
Its value is 0.0386.

For RRIRRRPPRLPRPRPRPIPHPRP, which “shrunken log2 fold change” value is on record?
The value was 0.822.

How did the “shrunken log2 fold change” value turn out when RRIRFRPPRLPRPRPRPTEWPRP was run?
Its value is 0.00734.

How did the “shrunken log2 fold change” value turn out when RRIRERPPRLPRPRPRPKDYPRP was run?
Its value is 0.101.

Which “shrunken log2 fold change” value does the source give for RRIRERPPRLPRPRPRPPHHPRP here?
The value was -0.123.

For RRIRARPPRLPRPRPRPTHNPRP, which “shrunken log2 fold change” value is on record?
Its value is 0.523.

How did the “shrunken log2 fold change” value turn out when RRIRARPPRLPRPRPRPWIRPRP was run?
Its value is -0.132.

How did the “shrunken log2 fold change” value turn out when RRIRPRPPRLPRPRPRPRLKPRP was run?
Its value is 0.344.

RRIRKRPPRLPRPRPRPKQYPRP was tested. Which “shrunken log2 fold change” value did it give?
The value was -0.222.

With RRIRWRPPRLPRPRPRPMQHPRP as the sequence, how does the “shrunken log2 fold change” value read?
Its value is 0.596.

With RRIRYRPPRLPRPRPRPLPWPRP as the sequence, how does the “shrunken log2 fold change” value read?
Its value is -0.132.

RRIRWRPPRLPRPRPRPNDMPRP was tested. Which “shrunken log2 fold change” value did it give?
The value was 0.199.

Which “shrunken log2 fold change” value does the source give for RRIRLRPPRLPRPRPRPREEPRP here?
Its value is -0.0235.

With RRIRTRPPRLPRPRPRPQMTPRP as the sequence, how does the “shrunken log2 fold change” value read?
Its value is 0.0824.

How did the “shrunken log2 fold change” value turn out when RRIRWRPPRLPRPRPRPNQGPRP was run?
The value was 0.0374.

Which “shrunken log2 fold change” value does the source give for RRIRYRPPRLPRPRPRPNIAPRP here?
Its value is -0.64.

With RRIRSRPPRLPRPRPRPSLIPRP as the sequence, how does the “shrunken log2 fold change” value read?
The value was -0.0623.

How did the “shrunken log2 fold change” value turn out when RRIRARPPRLPRPRPRPYGLPRP was run?
The value was 0.0316.

Which “shrunken log2 fold change” value does the source give for RRIRDRPPRLPRPRPRPTVLPRP here?
The value was 0.306.

How did the “shrunken log2 fold change” value turn out when RRIRHRPPRLPRPRPRPQEYPRP was run?
The value was -0.128.

Which “shrunken log2 fold change” value does the source give for RRIRFRPPRLPRPRPRPMYTPRP here?
The value was -0.00812.

With RRIRKRPPRLPRPRPRPNLWPRP as the sequence, how does the “shrunken log2 fold change” value read?
The value was 0.492.

With RRIRQRPPRLPRPRPRPVCLPRP as the sequence, how does the “shrunken log2 fold change” value read?
The value was -0.161.

How did the “shrunken log2 fold change” value turn out when RRIRTRPPRLPRPRPRPAWHPRP was run?
The value was 0.282.

With RRIRDRPPRLPRPRPRPPPCPRP as the sequence, how does the “shrunken log2 fold change” value read?
Its value is 0.443.

RRIRCRPPRLPRPRPRPEESPRP was tested. Which “shrunken log2 fold change” value did it give?
Its value is -0.00538.

How did the “shrunken log2 fold change” value turn out when RRIRTRPPRLPRPRPRPMNEPRP was run?
The value was -0.172.

How did the “shrunken log2 fold change” value turn out when RRIRHRPPRLPRPRPRPGSAPRP was run?
Its value is 0.323.

With RRIRSRPPRLPRPRPRPCTGPRP as the sequence, how does the “shrunken log2 fold change” value read?
The value was -0.0404.

How did the “shrunken log2 fold change” value turn out when RRIRWRPPRLPRPRPRPVTWPRP was run?
Its value is -0.017.

RRIRLRPPRLPRPRPRPHQEPRP was tested. Which “shrunken log2 fold change” value did it give?
The value was -0.00192.

Which “shrunken log2 fold change” value does the source give for RRIRCRPPRLPRPRPRPARTPRP here?
The value was 0.359.

How did the “shrunken log2 fold change” value turn out when RRIRLRPPRLPRPRPRPQTTPRP was run?
Its value is -0.152.

Which “shrunken log2 fold change” value does the source give for RRIRMRPPRLPRPRPRPEDQPRP here?
Its value is 0.0267.

How did the “shrunken log2 fold change” value turn out when RRIRARPPRLPRPRPRPISAPRP was run?
Its value is 0.294.

For RRIRQRPPRLPRPRPRPMAPPRP, which “shrunken log2 fold change” value is on record?
Its value is 0.0505.

For RRIRRRPPRLPRPRPRPGPQPRP, which “shrunken log2 fold change” value is on record?
Its value is 0.337.

How did the “shrunken log2 fold change” value turn out when RRIRTRPPRLPRPRPRPHPKPRP was run?
Its value is -0.0492.

How did the “shrunken log2 fold change” value turn out when RRIRGRPPRLPRPRPRPWNGPRP was run?
The value was 0.0616.

Which “shrunken log2 fold change” value does the source give for RRIRSRPPRLPRPRPRPHANPRP here?
Its value is -0.168.

How did the “shrunken log2 fold change” value turn out when RRIRVRPPRLPRPRPRPVPFPRP was run?
The value was -0.115.

For RRIRKRPPRLPRPRPRPTSTPRP, which “shrunken log2 fold change” value is on record?
Its value is 0.489.

RRIRMRPPRLPRPRPRPATGPRP was tested. Which “shrunken log2 fold change” value did it give?
Its value is 0.15.

With RRIRHRPPRLPRPRPRPDCCPRP as the sequence, how does the “shrunken log2 fold change” value read?
The value was -0.0827.

Which “shrunken log2 fold change” value does the source give for RRIRPRPPRLPRPRPRPMILPRP here?
Its value is -0.064.

With RRIRNRPPRLPRPRPRPESWPRP as the sequence, how does the “shrunken log2 fold change” value read?
The value was 0.362.

For RRIRYRPPRLPRPRPRPSDDPRP, which “shrunken log2 fold change” value is on record?
The value was -0.917.

RRIRRRPPRLPRPRPRPDRGPRP was tested. Which “shrunken log2 fold change” value did it give?
Its value is -0.216.

How did the “shrunken log2 fold change” value turn out when RRIRFRPPRLPRPRPRPNVLPRP was run?
Its value is -0.323.

How did the “shrunken log2 fold change” value turn out when RRIRYRPPRLPRPRPRPAANPRP was run?
Its value is -0.0861.

With RRIRGRPPRLPRPRPRPRTLPRP as the sequence, how does the “shrunken log2 fold change” value read?
Its value is 0.477.
